In patent US20060259987A1 (UNIVERSITY OF UTAH RESEARCH FOUNDATION, published 2006):

How the values were obtained:
[1] = biological target: T1, human neutrophil elastase (human, UniProt P08246 30-247, limits assumed); assay: cell-based or functional assay
T1 sequence (looked up): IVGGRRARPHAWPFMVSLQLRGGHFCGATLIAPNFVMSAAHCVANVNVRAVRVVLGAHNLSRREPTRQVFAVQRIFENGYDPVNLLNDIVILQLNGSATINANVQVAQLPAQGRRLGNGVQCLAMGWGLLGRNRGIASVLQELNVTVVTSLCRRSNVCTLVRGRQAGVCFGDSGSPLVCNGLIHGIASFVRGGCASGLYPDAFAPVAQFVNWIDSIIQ

[2] = biological target: T2, human thrombin (human, UniProt P00734 328-622); assay: cell-based or functional assay
[3] = biological target: T3, human factor Xa (human, UniProt P00742 41-179; P00742 235-488, limits assumed); assay: cell-based or functional assay
[4] = biological target: T1, human neutrophil elastase; assay: cell-based or functional assay; remark: listed apart in the source
[5] = biological target: T4, human neutrophil cathepsin G (human, UniProt P08311 21-244); assay: cell-based or functional assay
T4 sequence (looked up): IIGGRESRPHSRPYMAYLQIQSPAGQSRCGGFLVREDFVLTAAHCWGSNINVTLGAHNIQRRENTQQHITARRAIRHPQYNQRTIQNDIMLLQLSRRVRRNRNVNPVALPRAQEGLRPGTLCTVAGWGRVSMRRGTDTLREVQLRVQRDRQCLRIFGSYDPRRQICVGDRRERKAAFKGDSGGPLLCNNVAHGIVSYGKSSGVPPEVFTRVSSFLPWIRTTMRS

[6] = biological target: T2, human thrombin; assay: thrombin inhibition rate in the absence of heparin
[7] = biological target: T2, human thrombin; assay: thrombin inhibition rate in the presence of heparin (HAH)
[8] = biological target: T3, human factor Xa; assay: residual enzyme activity against time, pseudo-first-order, with heparin
Procedure: Polybrene was added with the chromogenic substrate to quench the heparin dependent reaction. The observed pseudo-first-order rate constants were calculated for each heparin (1 nM-5 nM) concentration from the slope of the log of residual proteinase activity vs. time. This was plotted against the heparin concentration to calculate the second-order rate constant for the inhibition by the heparin-ATIII complex, (Kₕₑₚ) from the equation Kobs=Kₕₑₚ[H]ₒ([AT]ₒ/[AT]ₒ+Kd)+Kuncat[AT]ₒ

[9] = biological target: T2, human thrombin; assay: residual enzyme activity against time, pseudo-first-order, progressive (no heparin)
[10] = biological target: T3, human factor Xa; assay: as above
[11] = biological target: T5, thrombin (human, UniProt P00734 328-622); assay: cell-based or functional assay
[12] = biological target: T6, factor Xa (human, UniProt P00742 41-179; P00742 235-488, limits assumed); assay: cell-based or functional assay
[13] = biological target: T6, factor Xa; assay: heparin cofactor assay, HCA expt #3; ATIII titrated on 10 nM fXa + 50 ug/ml UFH, chromogenic readout
Procedure: (§1) After 3 minutes, the reactions were quenched with polybrene and chromogenic substrate S2238 (thrombin) or S2765 (fXa), and the initial rate of chromophore production (405 nm) recorded to obtain a measurement residual, uninhibited thrombin or factor Xa. IC50s were determined from plots of ATIII concentration vs. percent residual target enzyme activity.

[14] = biological target: T5, thrombin; assay: heparin cofactor assay, HCA expt #3; ATIII titrated on 10 nM thrombin + 50 ug/ml UFH, chromogenic readout
Procedure: as §1

[15] = biological target: T6, factor Xa; assay: heparin cofactor assay, HCA expt #2; ATIII titrated on 10 nM fXa + 50 ug/ml UFH, chromogenic readout
Procedure: as §1

[16] = biological target: T5, thrombin; assay: heparin cofactor assay, HCA expt #2; ATIII titrated on 10 nM thrombin + 50 ug/ml UFH, chromogenic readout
Procedure: as §1

T3 sequence (P00742 41-179 limits assumed, chain 1 of 2): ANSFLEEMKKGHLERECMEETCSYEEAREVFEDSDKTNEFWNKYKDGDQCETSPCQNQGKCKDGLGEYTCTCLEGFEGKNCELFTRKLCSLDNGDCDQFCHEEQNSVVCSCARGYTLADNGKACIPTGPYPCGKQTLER
T3 sequence (P00742 235-488 limits assumed, chain 2 of 2): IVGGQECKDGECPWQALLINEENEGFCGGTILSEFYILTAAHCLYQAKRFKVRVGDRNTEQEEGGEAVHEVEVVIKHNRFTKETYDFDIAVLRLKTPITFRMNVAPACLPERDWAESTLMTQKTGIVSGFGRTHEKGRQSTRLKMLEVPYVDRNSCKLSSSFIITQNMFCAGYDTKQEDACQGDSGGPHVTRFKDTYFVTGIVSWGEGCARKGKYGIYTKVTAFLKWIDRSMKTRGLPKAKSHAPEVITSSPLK
T6 sequence (P00742 41-179 limits assumed, form in doubt, chain 1 of 2): as the sequence (P00742 41-179 limits assumed, chain 1 of 2) above
T6 sequence (P00742 235-488 limits assumed, form in doubt, chain 2 of 2): as the sequence (P00742 235-488 limits assumed, chain 2 of 2) above

B1: LEAI.474 (other)
chain: SPVDICTAKPRDIPMNPMCIYRSPEKKATEDEGSEQKIPEATNRRVWELSKANSRFATTFYQHLADSKNDNDNIFLSPLSISTAFAMTKLGACNDTLQQLMEVFKFDTISEKTSDQIHFFFAKLNCRLYRKANKASKLVSANRLFGDKSLTFNETYQDISELVYGAKLQPLDFKENAEQSRAAINKWVSNKTEGRITDVIPSEAINELTVLVLVNTIYFKGLWKSKFSPENTRKELFYKADGESCSASMMYQEGKFRYRRVAEGTQVLELPFKGDDITMVLILPKPEKSLAKVEKELTPEVLQEWLDELEEMMLVVHMPRFRIEDGFSLKEQLQDMGLVDLFSPEKSKLPGIVAEGRDDLYVSDAFHKAFLEVNEEGSEAAASTALEAQGRSLNPNRVTFKANRPFLVFIREVPLNTIIFMGRVANPCVK
notes: Recombinant human ATIII variant made in Drosophila S2 cells on the S137A background; also called DES.LEAI.474; LEAQ parent
halflife, min (HNE/hep) [1]: 38.4 min
IC50 IIa/UFH (HCA #5) [2]: 65 nM
IC50 IIa/UFH (HCA #6) [2]: 55 nM
IC50 IIa/UFH; HCA #2 [2]: 65 nM
IC50 IIa/UFH; HCA #3 [2]: 47 nM
IC50 IIa/UFH; HCA #4 [2]: 50 nM
rsd IIa, no add (CA #51, stg 1 conc 200) [2]: 2%
rsd IIa, no add (CA #52, stg 1 conc 200) [2]: 4%
IC50 fXa/UFH (HCA #5) [3]: 23 nM
IC50 fXa/UFH (HCA #6) [3]: 33 nM
IC50 fXa/UFH; HCA #2 [3]: 20 nM
IC50 fXa/UFH; HCA #3 [3]: 16 nM
IC50 fXa/UFH; HCA #4 [3]: 13 nM
rsd Xa, no add (CA #51, stg 1 conc 200) [3]: -1%
rsd Xa, no add (CA #52, stg 1 conc 200) [3]: 2%
rsd IIa, HNE (CA #51, stg 1 conc 200) [4]: 2%
rsd IIa, HNE (CA #52, stg 1 conc 200) [4]: 3%
rsd Xa, HNE (CA #51, stg 1 conc 200) [4]: -3%
rsd Xa, HNE (CA #52, stg 1 conc 200) [4]: 3%
rsd IIa, catG (CA #51, stg 1 conc 200) [5]: 2%
rsd IIa, catG (CA #52, stg 1 conc 200) [5]: 3%
rsd Xa, catG (CA #51, stg 1 conc 200) [5]: -2%
rsd Xa, catG (CA #52, stg 1 conc 200) [5]: 1%
Kapp, thrombin progressive [6]: 2700 M⁻¹ s⁻¹
Kapp, thrombin HAH [7]: 2e+06 M⁻¹ s⁻¹
kapp (apparent second-order inhibition rate constant) [8]: 1.25e+06 M⁻¹ s⁻¹
kapp (apparent second-order inhibition rate constant) [9]: 2680 M⁻¹ s⁻¹
kapp (apparent second-order inhibition rate constant) [10]: 10700 M⁻¹ s⁻¹

B2: 7EVEA.452 (other)
chain: SPVDICTAKPRDIPMNPMCIYRSPEKKATEDEGSEQKIPEATNRRVWELSKANSRFATTFYQHLADSKNDNDNIFLSPLSISTAFAMTKLGACNDTLQQLMEVFKFDTISEKTSDQIHFFFAKLNCRLYRKANKASKLVSANRLFGDKSLTFNETYQDISELVYGAKLQPLDFKENAEQSRAAINKWVSNKTEGRITDVIPSEAINELTVLVLVNTIYFKGLWKSKFSPENTRKELFYKADGESCSASMMYQEGKFRYRRVAEGTQVLELPFKGDDITMVLILPKPEKSLAKVEKELTPEVLQEWLDELEEMMLVVHMPRFRIEDGFSLKEQLQDMGLVDLFSPEKSKLPGIVAEGRDDLYVSDAFHKAFLEVNEEGSEAAASTEVELAGRSLNPNRVTFKANRPFLVFIREVPLNTIIFMGRVANPCVK
modifications: N-linked glycans added by Drosophila S2 cells; not carried by the letters
notes: Made in Drosophila S2 cells (DES) on the S137A background; N-terminus printed as SPVDI---
Rsd. IIa No add; CA expt #8; stg1 conc 200 [11]: 12 % of activity without ATIII
rsd. IIa catG; CA expt #8; stg1 conc 200 [11]: 14 % of activity without ATIII
rsd. IIa hne; CA expt #8; stg1 conc 200 [11]: 46 % of activity without ATIII
rsd. Xa catG; CA expt #8; stg1 conc 200 [12]: 1 % of activity without ATIII
rsd. Xa hne; CA expt #8; stg1 conc 200 [12]: 2 % of activity without ATIII
rsd. Xa no add; CA expt #8; stg1 conc 200 [12]: 1 % of activity without ATIII
IC50 [13]: 24 nM
IC50 [14]: 750 nM

B3: 7EVEA.453 (other)
chain: SPVDICTAKPRDIPMNPMCIYRSPEKKATEDEGSEQKIPEATNRRVWELSKANSRFATTFYQHLADSKNDNDNIFLSPLSISTAFAMTKLGACNDTLQQLMEVFKFDTISEKTSDQIHFFFAKLNCRLYRKANKASKLVSANRLFGDKSLTFNETYQDISELVYGAKLQPLDFKENAEQSRAAINKWVSNKTEGRITDVIPSEAINELTVLVLVNTIYFKGLWKSKFSPENTRKELFYKADGESCSASMMYQEGKFRYRRVAEGTQVLELPFKGDDITMVLILPKPEKSLAKVEKELTPEVLQEWLDELEEMMLVVHMPRFRIEDGFSLKEQLQDMGLVDLFSPEKSKLPGIVAEGRDDLYVSDAFHKAFLEVNEEGSEAAASTEVEFAGRSLNPNRVTFKANRPFLVFIREVPLNTIIFMGRVANPCVK
modifications: N-linked glycans added by Drosophila S2 cells; not carried by the letters
notes: as for B2
Rsd. IIa No add; CA expt #8; stg1 conc 200 [11]: 14 % of activity without ATIII
rsd. IIa catG; CA expt #8; stg1 conc 200 [11]: 62 % of activity without ATIII
rsd. IIa hne; CA expt #8; stg1 conc 200 [11]: 35 % of activity without ATIII
rsd. Xa catG; CA expt #8; stg1 conc 200 [12]: 2 % of activity without ATIII
rsd. Xa hne; CA expt #8; stg1 conc 200 [12]: 1 % of activity without ATIII
rsd. Xa no add; CA expt #8; stg1 conc 200 [12]: 1 % of activity without ATIII
IC50 [13]: 19 nM
IC50 [14]: 450 nM

B4: 7EVEA.454 (other)
chain: SPVDICTAKPRDIPMNPMCIYRSPEKKATEDEGSEQKIPEATNRRVWELSKANSRFATTFYQHLADSKNDNDNIFLSPLSISTAFAMTKLGACNDTLQQLMEVFKFDTISEKTSDQIHFFFAKLNCRLYRKANKASKLVSANRLFGDKSLTFNETYQDISELVYGAKLQPLDFKENAEQSRAAINKWVSNKTEGRITDVIPSEAINELTVLVLVNTIYFKGLWKSKFSPENTRKELFYKADGESCSASMMYQEGKFRYRRVAEGTQVLELPFKGDDITMVLILPKPEKSLAKVEKELTPEVLQEWLDELEEMMLVVHMPRFRIEDGFSLKEQLQDMGLVDLFSPEKSKLPGIVAEGRDDLYVSDAFHKAFLEVNEEGSEAAASTEVEWAGRSLNPNRVTFKANRPFLVFIREVPLNTIIFMGRVANPCVK
modifications: N-linked glycans added by Drosophila S2 cells; not carried by the letters
notes: as for B2
Rsd. IIa No add; CA expt #8; stg1 conc 200 [11]: 23 % of activity without ATIII
rsd. IIa catG; CA expt #8; stg1 conc 200 [11]: 93 % of activity without ATIII
rsd. IIa hne; CA expt #8; stg1 conc 200 [11]: 53 % of activity without ATIII
rsd. Xa catG; CA expt #8; stg1 conc 200 [12]: 2 % of activity without ATIII
rsd. Xa hne; CA expt #8; stg1 conc 200 [12]: 1 % of activity without ATIII
rsd. Xa no add; CA expt #8; stg1 conc 200 [12]: 1 % of activity without ATIII
IC50 [13]: 20 nM
IC50 [14]: 610 nM

B5: 7EVEA.451 (other)
chain: SPVDICTAKPRDIPMNPMCIYRSPEKKATEDEGSEQKIPEATNRRVWELSKANSRFATTFYQHLADSKNDNDNIFLSPLSISTAFAMTKLGACNDTLQQLMEVFKFDTISEKTSDQIHFFFAKLNCRLYRKANKASKLVSANRLFGDKSLTFNETYQDISELVYGAKLQPLDFKENAEQSRAAINKWVSNKTEGRITDVIPSEAINELTVLVLVNTIYFKGLWKSKFSPENTRKELFYKADGESCSASMMYQEGKFRYRRVAEGTQVLELPFKGDDITMVLILPKPEKSLAKVEKELTPEVLQEWLDELEEMMLVVHMPRFRIEDGFSLKEQLQDMGLVDLFSPEKSKLPGIVAEGRDDLYVSDAFHKAFLEVNEEGSEAAASTEVEIAGRSLNPNRVTFKANRPFLVFIREVPLNTIIFMGRVANPCVK
modifications: N-linked glycans added by Drosophila S2 cells; not carried by the letters
notes: as for B2
Rsd. IIa No add; CA expt #8; stg1 conc 200 [11]: 6 % of activity without ATIII
rsd. IIa catG; CA expt #8; stg1 conc 200 [11]: 7 % of activity without ATIII
rsd. IIa hne; CA expt #8; stg1 conc 200 [11]: 12 % of activity without ATIII
rsd. Xa catG; CA expt #8; stg1 conc 200 [12]: 1 % of activity without ATIII
rsd. Xa hne; CA expt #8; stg1 conc 200 [12]: 1 % of activity without ATIII
rsd. Xa no add; CA expt #8; stg1 conc 200 [12]: 1 % of activity without ATIII
IC50 [15]: 38 nM
IC50 [13]: 50 nM
IC50 [16]: 400 nM
IC50 [14]: 450 nM
